Data on two substances can be found in patent publication US20230365641A1.

In test [1] the target is PD-1 (antigen of the ELISA and of the in vitro affinity measurement) (UniProt Q15116). The test can be described thus: ELISA. Set-up: Bmax: unit not given here. (ELISA stands for enzyme-linked immunosorbent assay.)
In a further test the target is hPD1-mFc (human). The test can be described thus: kinetic binding table: huPDL1-hFc captured as ligand (capture level 53.4 RU), hPD1-mFc as sample; method not given.
hPD1-mFc (human), sequence (Q15116 25-170): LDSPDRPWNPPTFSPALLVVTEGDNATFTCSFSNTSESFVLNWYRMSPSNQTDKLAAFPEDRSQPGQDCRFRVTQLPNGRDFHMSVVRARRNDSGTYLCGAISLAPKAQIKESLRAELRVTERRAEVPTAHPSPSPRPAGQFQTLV

What is called Kd is a measure of binding affinity in units of concentration. As usually defined, the koff is the rate constant with which the complex falls apart. In general, kon refers to the second-order rate constant of association.

PD-1 (antigen of the ELISA and of the in vitro affinity measurement), sequence (Q15116 25-167 limits assumed): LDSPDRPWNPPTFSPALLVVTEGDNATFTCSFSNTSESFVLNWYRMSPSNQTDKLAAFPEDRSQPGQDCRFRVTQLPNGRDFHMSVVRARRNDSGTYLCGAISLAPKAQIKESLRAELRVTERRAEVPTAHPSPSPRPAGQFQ

In test [1], XR034 (Pembro IgG) (antibody) gave a Bmax of 1.37 and a Kd of 0.32 nM.

“huPDL1-hFc (from UniProt Q9NZQ7) (Fc fusion)”: in the test with hPD1-mFc (human), the Kd came to 74.1 nM, the dissociation rate constant (koff) was 0.025 s⁻¹ and the on-rate constant (kon) is 338000 M⁻¹ s⁻¹.
